# Test results published in the supplement of paper PMC9170038.
# System: MS2 coat protein
# Experiment: apparent KD of MS2 coat protein; designed switch direction (-1 OFF switch, 1 ON switch): 1; higher = weaker reporter binding
# In short: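 Stalled E. coli RNA polymerase transcribed designed RNA switches on Illumina chips, which were then titrated with SNAP-549-labelled MS2 coat protein, doubling from 0.7 or 1.5 nM to 3 µM. Steps lasted from 0.8–1.5 h at the lowest concentration to 10–20 min at the highest. The apparent KD is each design's median over clusters of curve-fitted normalised fluorescence.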
# [1] = input ligand: microRNA oligo, concentration not stated
# [2] = Eterna round: R95, input ligand: FMN 200 uM
# [3] = Eterna round: R95, input ligand: microRNA oligo, concentration not stated
# [4] = Eterna round: R95, input ligand: none
Sequence,apparent KD of MS2 coat protein (input ligand: FMN 200 uM) [µM],apparent KD of MS2 coat protein [1] [µM],apparent KD of MS2 coat protein (input ligand: none) [µM],apparent KD of MS2 coat protein [2] [µM],apparent KD of MS2 coat protein [3] [µM],apparent KD of MS2 coat protein [4] [µM]
"GCGAAGAGGUAAGGAUAUUCAUGGCGGAGACAUGAGGAUCACCCAUGUAGGAGACGAAAUCUAAGGGAGAAGGUACCAGGACGC [AK SSNG2-V2-14] (Eterna round: R96, puzzle: Same State NG 2)",0.112,0.147,0.321,–,–,–
"AUUUUUAAUGCAGGAUAUGAUUAACAUGAGGAUCACCCAUGUGGUGUUGUGAGUAAGGAGAGUGAUCAGAAGGGCAGUUUUUUU [JMF's solution 79] (Eterna round: R96, puzzle: Same State NG 2)",0.543,0.315,0.499,–,–,–
"GCUCGACGUAUGGCCUACAUGAGGAUCACCCAUGUGACUGGGCAGGAUAUCUAGAUGCAGAAUGUAGAGAAGGGCCCGUCGAGC [SameState NG3 #48] (Eterna round: R96, puzzle: Same State NG 3)",0.244,0.074,0.194,–,–,–
AACUUACGACCACAGGAUAUACUGAGGCGGACAUGAGGAUCACCCAUGUAGGCAAAAUAAGGGCAGUAGAAGGGUGGUCUUUACA [Usbiraxe] (puzzle: Same State 2),–,–,–,0.0184,0.0188,0.0275
"AUGACAUGCACAGGAUAUUAGGCGCAGUACAGAUAAGAAGGGUGGAUCAGCAUACAUGAGGAUCACCCAUGUUGUUGUAACAUG [Same State 1 S2] (Eterna round: R96, puzzle: Same State NG 1)",–,0.252,–,–,–,–
"GUGGUCAGACAUGAGGAUCACCCAUGUGGAAUAAAUAAGGACAAGGAUAUGGAAUAUAGGAUAUACCAGAAGGUGUGGUUGGUG (Eterna round: R96, puzzle: Same State NG 3)",–,0.0675,–,–,–,–
"GUCGGCCUGUCGUGCUGAGGUGAUAGUUAACAUGAGGAUCACCCAUGUUGCUGUCGGGUCGUUGGGAGUUUUCUUCG [Modxample 117 - Jieux - Sensor for bsa-mir-208a] (Eterna round: R96, puzzle: Sensor for hsa-mir-208a)",0.0712,0.0508,0.0624,–,–,–
"AAAAUAAAUACAGGAUAUAGCCGCCUAAAGCGGCUAGAAGGGUAGAUCGAAAUACAUGAGGAUCACCCAUGUGCACGUAAGUGC [Eresesgeti] (Eterna round: R96, puzzle: Same State NG 1)",0.775,0.527,1.35,–,–,–
"CCAUAACGGUGAGGAUAUCGUUGCGAUAAGUGACGAGAAGGCAUUCAUGUGAAAUAAACAUACAUGAGGAUCACCCAUGUUGUA [Omei SS(NG)1 Bv1] (Eterna round: R96, puzzle: Same State NG 1)",0.0237,0.0572,0.0577,–,–,–
"AUUACUAGCAUAGGAUAUCAUGCGAAAAUUGCGUGAGAAGGGUGGACGCUGUCAUUCACGGAAGACAUGAGGAUCACCCAUGUC [SameState NG1 #74] (Eterna round: R96, puzzle: Same State NG 1)",0.142,0.0685,0.094,–,–,–
"AUUUUUAAUGCAGGAUAUGAUUAACAUGAGGAUCACCCAUGUGGUGUUGUGAGUAAGGAGAGUGAUCAGAAGGGCAUAUUUUUU [JMF's solution 80] (Eterna round: R96, puzzle: Same State NG 2)",1.17,0.443,0.863,–,–,–
"AUAAACAGGCUAGGAUAUCCGGAAACUACAGGACACGACCCUGUGGACAUGAGGAUCACCCAUGUGGAGAAGGAGCCACAUGAA [Onvete] (Eterna round: R96, puzzle: Same State NG 2)",0.0314,0.223,0.145,–,–,–
"GGAUGAUAGACAGGAUAUUGAUUGUAAUUAGGUCAAGAAGGGUCAAUGAUUUAAACGACCAGUUACAUGAGGAUCACCCAUGUU [JR_SSNG1_Sub027] (Eterna round: R96, puzzle: Same State NG 1)",0.16,0.208,0.315,–,–,–
AAGGUCUUCGUACAGGAUAUGCACUUGUGCACAUGAGGAUCACCCAUGUGGGAAAAGGUCACAGGGCAGAAGGGUAUUUAUAAAA [Erriti] (puzzle: Same State 2),–,–,–,0.0394,0.0666,0.103
"GGUGCAAUUAACGCCUACAUGAGGAUCACCCAUGUAUGUAGGCAGGAUAUCGUUUGCAAAGCAAACGAGAAGGGCUGUAGUACC [Mat - Same State NG 3 - JL Mod - D40] (Eterna round: R96, puzzle: Same State NG 3)",0.0511,0.109,0.131,–,–,–
GACAGGCAAGCUUUUUUCUCGUAGUGUAAACAUGAGGAUCACCCAUGUGCUCGCCCUAGAUCUUUGGAUCGCAGAAA [Ceedes] (puzzle: Sensor for hsa-mir-208a),–,–,–,0.0395,0.0226,0.0501

Sequence,apparent KD of MS2 coat protein (input ligand: FMN 200 uM) [µM],apparent KD of MS2 coat protein [1] [µM],apparent KD of MS2 coat protein (input ligand: none) [µM],apparent KD of MS2 coat protein [2] [µM],apparent KD of MS2 coat protein [3] [µM],apparent KD of MS2 coat protein [4] [µM]
"UUCCCAUCGGGAGGAUAUGGAACCUUAUUGGUUCUAGAAGGUCCAACAUGAGGAUCACCCAUGUGGGAGUGGUCUAAUGACCUC [SS NG10LRO03] (Eterna round: R96, puzzle: Same State NG 1)",0.264,0.288,0.333,–,–,–
"UUAACAUGAGGAUCACCCAUGUAUAGGGAGUUAACAAUUGGACAGGAUAUUGAAGAUGUAGAUAGCAAGAAGGGUCGGUAGUCU [JR_SSNG3_Sub001] (Eterna round: R96, puzzle: Same State NG 3)",–,0.03,–,–,–,–
"UACAUACGCGGAGGAUAUGGGCGAGGCACGGAGGUCCGCGCCAAAACAUGAGGAUCACCCAUGUCCCAGAAGGCCGCACAAACU [Oreslaed] (Eterna round: R96, puzzle: Same State NG 2)",0.0138,0.0544,0.0831,–,–,–
"GCUAGAAUAAAUGCCUACAUGAGGAUCACCCAUGUAUGUAGGCAGGAUAUCGUUUGCAAAGCAAACGAGAAGGGCCUUACUAGC [Mat - Same State NG 3 - JL Mod - D29] (Eterna round: R96, puzzle: Same State NG 3)",0.0215,0.043,0.0557,–,–,–
AGUCCAGCCUGAGCUGGACAAAAGCAUGUACAUGAGGAUCACCCAUGUCAUGUACAAGCUUUUUGCUCGUAAUAAUA [Mat - hsa-mir-208a - Mod of JL - D31] (puzzle: Sensor for hsa-mir-208a),–,–,–,0.301,0.0124,0.477
UAGCGCUGUCGAGAGGAUAUGCGGUGAUGGACAUGAGGAUCACCCAUGUUAGCGAUAGCAUUACGGUAGAAGGCUCUACAGCUGU [salish99_ss2_r3_093] (puzzle: Same State 2),–,–,–,–,0.177,–
"GAGUAGUUGAAAGGAUAUCGAUUGUUAUAGAAUCGAGAAGGUUCUAACAUGAGGAUCACCCAUGUAGGACUAUUCCUGUGUAUC [Parity 77 - Jieux - Same State NG 1] (Eterna round: R96, puzzle: Same State NG 1)",–,0.00975,–,–,–,–
"UGUUGUAUUACAGGAUAUCUAUUAGCUUUAUUUAGAGAAGGGUAUUCACAUGAGGAUCACCCAUGUAUAUACGAGGAAGUUGUG [JMF's solution 88] (Eterna round: R96, puzzle: Same State NG 1)",–,0.0336,–,–,–,–
"GGAGCCAAGGCAGGAUAUUCAUAUAAAUUAACAUGAGGAUCACCCAUGUAGGCCAGAAGGCCUUGGGAGAAGGGCCAUGGCUCG [Xeonanis - 13 mod8] (Eterna round: R96, puzzle: Same State NG 2)",0.0216,0.143,0.157,–,–,–
"AUCCGAACCAUAGGAUAUACUGGCCUCGGGCCAGUAGAAGGGUGGGACAUGAGGAUCACCCAUGUAAAGCACAAUCAGUGCAAA [Ceramace] (Eterna round: R96, puzzle: Same State NG 1)",0.167,0.119,0.151,–,–,–
"GGACGUCAACUCACUAAUUAACAUGAGGAUCACCCAUGUUCACAGGAUAUGAGUCCGAUUAGGACUCAGAAGGGUGAGACGUCC [Fiskers NG3ss - 48] (Eterna round: R96, puzzle: Same State NG 3)",0.0203,0.0197,0.0211,–,–,–
"GCCGCGUUUCGCGCCUACAUGAGGAUCACCCAUGUUUGUAGGCAGGAUAUCGCUUGCUUUGCGGGCGAGAAGGGCUGUUGUGGC [salish99_SSNG3_R04_018] (Eterna round: R96, puzzle: Same State NG 3)",0.0368,0.0568,0.0516,–,–,–
"AUUAUUAAUGCAGGAUAUGAUUAACAUGAGGAUCACCCAUGUGGUGUUGUGAGUAAGGAGAGUGAUCAGAAGGGCAUUUCUUUU [JMF's solution 11] (Eterna round: R96, puzzle: Same State NG 2)",0.468,0.241,0.373,–,–,–
GGUCCAGCCUGAGCUGGACAAAAGCAUGUACAUGAGGAUCACCCAUGUCAUGUACAAGCUUUUUGCUCGUCUAAAUU [Mat - hsa-mir-208a - 94] (puzzle: Sensor for hsa-mir-208a),–,–,–,0.781,0.0151,0.578
"GGGAGAGUUACAGGAUAUGGUGAGGAUUACCCACUAGAAGGGUAAACAUGUGAAUCGGACAUGAGGAUCACCCAUGUUGGGCGU (Eterna round: R96, puzzle: Same State NG 1)",0.162,0.16,0.203,–,–,–
